# Experimental data: publication PMC10776578, “Epstein-Barr virus-driven B cell lymphoma mediated by a direct LMP1-TRAF6 complex” (Nature Communications, 2024)
# Where a chain is given by its changes, count along the chain named. Names may count otherwise.
# T1: His-TRAF6_(310-522) (human, UniProt Q9Y4K3 310-522)
# T1 construct: also called His-T6; recombinant TRAF6 wild-type; source: E. coli BL21 Codon Plus RIPL, purified (Ni-NTA)
# T1 sequence: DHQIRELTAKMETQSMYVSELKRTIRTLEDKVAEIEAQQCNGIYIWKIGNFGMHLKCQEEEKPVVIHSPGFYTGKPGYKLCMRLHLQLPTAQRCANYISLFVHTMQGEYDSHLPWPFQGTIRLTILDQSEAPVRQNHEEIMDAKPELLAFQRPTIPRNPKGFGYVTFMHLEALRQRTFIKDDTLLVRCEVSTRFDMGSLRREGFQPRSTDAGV
# B1: K469A (protein, UniProt Q9Y4K3 1-522, looked up, variant K469A)
# TNF receptor-associated …: MSLLNCENSCGSSQSESDCCVAMASSCSAVTKDDSVGGTASTGNLSSSFMEEIQGYDVEFDPPLESKYECPICLMALREAVQTPCGHRFCKACIIKSIRDAGHKCPVDNEILLENQLFPDNFAKREILSLMVKCPNEGCLHKMELRHLEDHQAHCEFALMDCPQCQRPFQKFHINIHILKDCPRRQVSCDNCAASMAFEDKEIHDQNCPLANVICEYCNTILIREQMPNHYDLDCPTAPIPCTFSTFGCHEKMQRNHLARHLQENTQSHMRMLAQAVHSLSVIPDSGYISEVRNFQETIHQLEGRLVRQDHQIRELTAKMETQSMYVSELKRTIRTLEDKVAEIEAQQCNGIYIWKIGNFGMHLKCQEEEKPVVIHSPGFYTGKPGYKLCMRLHLQLPTAQRCANYISLFVHTMQGEYDSHLPWPFQGTIRLTILDQSEAPVRQNHEEIMDAKPELLAFQRPTIPRNPAGFGYVTFMHLEALRQRTFIKDDTLLVRCEVSTRFDMGSLRREGFQPRSTDAGV
# B2: 371-T6wt: TRAF6 wild-type coexpressed with LMP1Δ371-386 (protein, UniProt Q9Y4K3 1-522, looked up)
# TNF receptor-associated …: B1 TNF receptor-associated … with A469K
# B3: GST-LMP1_(181-386) A204xAxA (domain or fragment)
# chain: LIWMYYHGQRHSDEHHHDDSLPHAQAAADDSGHESDSNSNEGRHHLLVSGAGDGPPLCSQNLGAPGGGPDNGPQDPDNTDDNGPQDPDNTDDNGPHDPLPQDPDNTDDNGPQDPDNTDDNGPHDPLPHSPSDSAGNDGGPPQLTEEVENKGGDQGPPLMTDGGGGHSHDSGHGGGDPHLPTLLLGSSGSGGDDDDPHGPVQLSYYD
# notes: also called A204xAxA mutant; CTAR1 mutant; source: E. coli DH5α or BL21 Codon Plus RIPL, purified (glutathione Sepharose 4B)
# B4: GST-RANK_(314-355) (domain or fragment)
# chain: GGGPYAQGEDARMLSLVSKTEIEEDSFRQMPTEDEYMDRPSQ
# notes: also called TRANCE receptor; source: E. coli DH5α or BL21 Codon Plus RIPL, purified (glutathione Sepharose 4B)
# B5: GST-LMP1_(181-386) Y384F (domain or fragment)
# chain: B3 chain with A24P, A26Q, A28T, Y204F
# notes: also called LMP1 Y384F; source: E. coli DH5α or BL21 Codon Plus RIPL, purified (glutathione Sepharose 4B)
# B6: GST-LMP1_(181-386) G378A (domain or fragment)
# chain: B3 chain with A24P, A26Q, A28T, G198A
# notes: source: E. coli DH5α or BL21 Codon Plus RIPL, purified (glutathione Sepharose 4B)
# B7: GST-LMP1_(181-386) S383A (domain or fragment)
# chain: B3 chain with A24P, A26Q, A28T, S203A
# notes: as for B6
# B8: GST-LMP1_(181-386) L382A (domain or fragment)
# chain: B3 chain with A24P, A26Q, A28T, L202A
# notes: as for B6
# B9: GST-LMP1_(181-386) Y385A (domain or fragment)
# chain: B3 chain with A24P, A26Q, A28T, Y205A
# notes: also called mutation of Y385 (alanine scan); source: E. coli DH5α or BL21 Codon Plus RIPL, purified (glutathione Sepharose 4B)
# B10: GST-LMP1_(181-386) Q381E (domain or fragment)
# chain: B3 chain with A24P, A26Q, A28T, Q201E
# notes: also called LMP1 Q381E; source: E. coli DH5α or BL21 Codon Plus RIPL, purified (glutathione Sepharose 4B)
# Experiments:
# GST-LMP1_181-386 = assay: AlphaScreen PPI, TRAF6 mutants binding to LMP1; set-up: species or system Epstein-Barr virus; TRAF6 binding to LMP1 (AlphaScreen), mean: unit not given here
# Procedure: (§1) Fig. 2 LMP1 binds to the receptor-interacting surface of TRAF6. a Mutations within the receptor-interacting surface of TRAF6 affect binding to LMP1. The TRAF6 mutants R392A, K469A, F471A, and Y473A were tested LMP1 in AlphaScreen PPI experiments with GST-LMP1_181-386. Data are mean values ± SD of three independent experiments. Statistics: one-way ANOVA. b TRAF6 R392A differentiates between CD40 and LMP1/RANK. AlphaScreen PPI experiments with GST-CD40_216-277. Data are mean values ± SD of three independent experiments. […] AlphaScreen PPI experiments with GST-RANK314-355. Data are mean values ± SD of four independent experiments. Statistics: one-way ANOVA. d TRAF6 mutants that fail to interact with LMP1 in PPI assays are also unable to bind cellular LMP1. HEK293 cells were co-transfected with HA-LMP1 and the indicated Flag-TRAF6 mutants. Flag-TRAF6 was immunoprecipitated (IP) via its Flag-tag and coprecipitated HA-LMP1 was detected on immunoblots by an α-HA antibody. Uncropped blots in Supplementary Fig. 6b. For statistical analysis LMP1 signals were digitalized and quantified (graph). Data are mean values ± SD of three independent experiments. […] TRAF6 recruitment is dependent on amino acids 371 − 386 of LMP1 (small panel). Confocal microscopy images show representative cells of three independent experiments. Quantitative data are mean values ± SD of ten randomly selected cells per transfection of one representative experiment (graph). Scale bars: 10 µm. Statistics: one-way ANOVA. p-values: *p ≤ 0.05, **p ≤ 0.01, ***p ≤ 0.001, ****p ≤ 0.0001. Source data and exact p-values in the Source Data file.
# (§2) AlphaScreen experiments were performed in 96- or 384-well plates (Perkin Elmer, OptiPlate). In both assay formats, His-TRAF and GST-LMP1, GST-CD40, or GST-RANK proteins were incubated together in 40 µL of PBS (protein concentrations were calculated to the final reaction volume of 60 µL) supplemented with 0.5% BSA (Sigma, #A7030) and 0.1% Tween-20 (AppliChem, #A4974), for 1 h at room temperature (RT). If not indicated otherwise, standard protein concentrations were 300 nM for His-TRAF proteins and 100 nM for GST-LMP1 proteins. Ni-NTA-acceptor (Perkin Elmer, #6760619 C) and GST-acceptor (Perkin Elmer, # 6765300) beads were added each to a final concentration of 1–4 µg per mL in a final reaction volume of 60 µL and incubated for 1 h at RT in the dark. AlphaScreen PPI signals were measured in a CLARIOstar reader (BMG Labtech GmbH).
# GST-CD40_216-277 = assay: AlphaScreen PPI, TRAF6 mutants binding to CD40; set-up: species or system human; TRAF6 binding to CD40 (AlphaScreen), mean: unit not given here
# Procedure: as §1, §2
# HA-LMP1 [1] = assay: Coimmunoprecipitation of HA-LMP1 with Flag-TRAF6 mutants in HEK293 cells; assay type: cell-based, Epstein-Barr virus
# Procedure: Immunoblotting was essentially performed as described. Proteins were detected on nitrocellulose membranes (Bio-Rad, #1620115) using the following primary antibodies: α−6*His-tag (clone 4A4 or 2F12, source: antibody facility of the Helmholtz Center Munich, hybridoma supernatants were used at a 1:10 dilution)[75], α-TRAF6 (H-274, Santa Cruz Biotech., #sc-7221, used at 1:1000), α-HA-tag (12CA5, Sigma-Aldrich, #11583816001, used at 0.4 µg per mL), α-IκBα (C-21, Santa Cruz Biotech., #sc-371, used at 1:500) and α-Tubulin (B-5-1-2, Santa Cruz Biotech., #sc-23948, used at 1:500). Horseradish peroxidase-coupled antibodies were used as secondary antibodies (Cell Signalling Technology, #7074 or #7076, respectively, both used at 1:5000). ECL signals were captured on X-ray films (Agfa Healthcare) and quantified by densitometry using the ImageJ software. Uncropped scans of immunoblots indicating molecular weights are provided in Supplementary Fig. 6.
# HEK293 cells were transfected with 1 µg of pRK5-Flag TRAF6 plasmids, 1 µg of pCMV-HA-LMP1 and 6 µg of pRK5 per 10 cm cell culture dish using PolyFect Transfection Reagent (Qiagen, #301107) in RPMI without supplements. Cells were incubated with the plasmid transfection mix for 4 h before the medium was changed to RPMI full medium. After 24 h, the cells were lysed in NP40-lysis buffer (50 mM HEPES pH 7.5, 150 mM NaCl, 5 mM EDTA, 0.5 mM sodium orthovanadate, 0.5 mM PMSF, 0.5 mM sodium molybdate, and cOmplete protease inhibitor cocktail). Lysates were cleared by centrifugation at 15000 x g for 10 min at 4 °C, and the protein concentration was adjusted to 1 mg per mL. For immunoprecipitation 4 mL of lysate was incubated with the α-Flag antibody 6F7 (Sigma-Aldrich, #F3165; covalently coupled to protein-G-Sepharose) for 1 h at 4 °C. The beads were pelleted at 15000 x g for 30 seconds at 4 °C, washed twice with NP40-lysis buffer, and analyzed by immunoblotting.
# HA-LMP1 [2] = assay: Confocal immunofluorescence colocalization of Flag-TRAF6 with HA-LMP1 in HeLa cells; assay type: cell-based, Epstein-Barr virus; settings: for colocalization of TRAF6 with LMP1, mean: mean of ten cells
# Procedure: HeLa cells were seeded onto cover glasses (Thermo Scientific, Menzel) in 24-well plates one day before transfection. Cells were transfected at 50–60% confluency with 50 ng of pCMV-HA-LMP1 plasmids and 100 ng of pRK5-Flag-TRAF6 plasmids, adjusted to a total of 500 ng DNA per sample with pRK5 empty vector, using Lipofectamine 2000 (Thermo Fisher Scientific) according to the manufacturer’s instructions. At 24 h posttransfection, cells were washed once with PBS and fixed with 4% paraformaldehyde (Sigma-Aldrich) for 20 min at RT, followed by permeabilization with 0.3% (v/v) Triton X-100 and blocking with 5% (v/v) FBS in PBS for 1 h at RT. For immunostaining, the cells were incubated overnight with the primary antibodies α-HA (1:1000, clone 16B12, BioLegend) and α-DYKDDDDK (1:1000, clone L5, BioLegend) at 4 °C. The secondary antibodies goat α-mouse Alexa 488 (1:500, cross-adsorbed, Invitrogen, #A-11029) and goat α-rat Alexa 555 (1:500, cross-adsorbed, Invitrogen, #A-21434) were added for 1.5 h at RT. Microscope slides were sealed with cover glasses using Mowiol mounting medium (Sigma-Aldrich). Nuclei were stained with Hoechst 33258 (Sigma-Aldrich). All samples were imaged using a Leica TCS SP5 confocal microscope with 405 nm, 488 nm, 543 nm or 633 nm laser lines, scanning each channel separately under image capture conditions that eliminated channel overlap. For each single experiment, 10 transfected cells positive for both constructs were randomly captured as single-cell images for quantification. The resulting images were then analyzed using the Leica TCS SP5 colocalization analyses application (LAS AF Version 2.7.3.9723). Analysis was performed with default parameters.
# His-TRAF6_(310-522) = molecular target: T1, His-TRAF6_(310-522); assay: AlphaScreen or HTRF; AlphaScreen PPI assay: His-TRAF and GST-LMP1, GST-CD40 or GST-RANK in PBS with 0.5% BSA and 0.1% Tween-20, 1 h at RT; standard 300 nM His-TRAF and 100 nM GST protein if not indicated otherwise; for KD His-TRAF6 at different concentrations, fit one site-specific binding with hill slope; settings: both partners purified
molecule,measurement,setting,value
B1,effect of TRAF6 mutation on binding to LMP1 (in words),GST-LMP1_181-386; AlphaScreen PPI,did not affect the TRAF6 interaction with LMP1 or CD40
same,"TRAF6 binding to LMP1 (AlphaScreen), mean","GST-LMP1_181-386; Figure 2a, mean of n = 3",102.4
same,TRAF6 binding to LMP1 (AlphaScreen),"GST-LMP1_181-386; Figure 2a, relative to mean wt 100, replicate 1",73.0
same,TRAF6 binding to LMP1 (AlphaScreen),"GST-LMP1_181-386; Figure 2a, replicate 2",116.6
same,TRAF6 binding to LMP1 (AlphaScreen),"GST-LMP1_181-386; Figure 2a, replicate 3",117.5
same,effect of TRAF6 mutation on binding to CD40 (in words),GST-CD40_216-277; AlphaScreen PPI,did not affect the TRAF6 interaction with LMP1 or CD40
same,"TRAF6 binding to CD40 (AlphaScreen), mean","GST-CD40_216-277; Figure 2b, mean of n = 3",89.86
same,TRAF6 binding to CD40 (AlphaScreen),"GST-CD40_216-277; Figure 2b, relative to mean wt 100, replicate 1",52.8
same,TRAF6 binding to CD40 (AlphaScreen),"GST-CD40_216-277; Figure 2b, replicate 2",105.6
same,TRAF6 binding to CD40 (AlphaScreen),"GST-CD40_216-277; Figure 2b, replicate 3",111.2
same,"coprecipitated HA-LMP1 signal (densitometry), mean","HA-LMP1 [1]; HEK293, mean of n = 3",17563327
same,interaction of TRAF6 mutants with LMP1 in HEK293 cells (in words),HA-LMP1 [1]; coimmunoprecipitation,no negative effect on the interaction
same,colocalization with HA-LMP1 (in words),HA-LMP1 [2]; confocal microscopy,colocalized to a high extent with HA-LMP1 clusters
same,"colocalization of TRAF6 with LMP1, mean",HA-LMP1 [2],98.27
B2,"colocalization of TRAF6 with LMP1, mean",HA-LMP1 [2],32.37
B3,binding result,His-TRAF6_(310-522),binds
B4,Kd,His-TRAF6_(310-522),7.7 nM
B5,binding result,His-TRAF6_(310-522),binds
B6,binding result,His-TRAF6_(310-522),binds
B7,binding result,His-TRAF6_(310-522),binds
B8,binding result,His-TRAF6_(310-522),binds
B9,binding result,His-TRAF6_(310-522),binds
B10,Kd,His-TRAF6_(310-522),14.7 nM
